{
  "source": "patent US20070111947A1",
  "about": "“Fibrin targeted therapeutics” (priority 2005, published 2007)",
  "test_system": "arterial thrombosis (FeCl3 damaged carotid artery)",
  "experiment": "Arterial thrombosis model (FeCl3 damaged carotid artery)",
  "assay_type": "in vivo, rabbit",
  "experimental": "Rabbits are initially sedated with a subcutaneous injection of Xylazine (5 mg/kg). Approximately 5 min following sedation, the animals are anesthetized with a dose of Ketamine (50 mg/kg) and Acepromazine (2.5 mg/kg) intramuscularly to achieve the appropriate level of anesthesia. Anesthetic depth will be assessed using the pain withdraw reflexes and EKG. Anesthesia is given intravenously every 45-60 min at 5-10 mg/kg to maintain proper anesthetic depth.\nLeft carotid artery is isolated using a ventral midline approach. A stenosis is initiated on the carotid artery reducing blood flow by 70-80%. 1 cm segments of carotid artery are placed in a plastic tube opened lengthwise, together with a filter paper (diameter 3 mm) soaked in ferric chloride (FeCl3, 40 μL, 40% w/w). After 15-30 min exposure of the artery to FeCl3, the plastic tube with the filter paper is removed and the artery is rinsed with saline. The time to vessel occlusion is monitored using a Doppler flow probe, which is attached to the carotid artery. ^125I fibrinogen (30 μCi/kg) is administered 5 min before initiation of the stenosis. The saline, test or control compounds are given via the jugular vein as an intravenous bolus injection immediately before or at the end of FeCl3 exposure. Blood sample are collected at 1, 3, 5, 12, 20, 30, 45, 60 and 90 min after compound injection via the contra lateral jugular vein. The time that blood flow dropped to zero is recorded as the occlusion time of blood vessel. At the end of experiment, animals are sacrificed with an overdose of pentobarbital (120 mg/kg). Both the clot from the FeCl3 damaged artery, and the damaged artery after clot removal are weighed. Right carotid artery is used as a control. Concentration of test compound and fibrin in the clot are detected by γ-countering.\nPharmacokinetics of compound are analyzed by using the WinNonLin program.",
  "key": {"[1]": {"conditions": "compared to an equivalent dose of Non-binder control, FIG. 4"}},
  "data": [
    {"smiles": "CCC(C)[C@H](CC(=O)[C@@H](C)Cc1c[nH]cn1)C(=O)N[C@@H](CC(C)C)C(=O)NCc1ccc(CCC(=O)[C@H](CCNC(=O)CC[C@H]2C(=O)[O][Y]345[O]C(=O)CN(CCN2CCN(CC(=O)[O]3)CC(=O)[O]4)CC(=O)[O]5)NC(=O)CC[C@H]2C(=O)[O][Y]345[O]C(=O)CN(CCN2CCN(CC(=O)[O]3)CC(=O)[O]4)CC(=O)[O]5)cc1", "note": "(stereo partly shown) [Hybrid Molecule 3]", "values": [
      {"measurement": "higher level bound to clot", "setting": "[1]", "result": 5, "unit": "fold"},
      {"measurement": "higher level bound to clot plus damaged artery", "setting": "[1]", "result": 2, "unit": "fold"},
      {"measurement": "increased time to occlusion", "setting": "compared to an equivalent dose of melagatran alone or the Non-binder, FIG. 2", "result": "approximately 4 fold"},
      {"measurement": "decrease in clot weight", "setting": "compared to an equivalent dose of melagatran or Non-binder control, FIG. 3", "result": "approximately 2 fold"}
    ]}
  ]
}
